Data published in US7803377B2, “Anti-DLL4 antibodies and methods using same” (Genentech, Inc., priority 2006, dated 2010).
Changes are numbered by the printed parent chain.

B1: YW26.14: affinity matured anti-DLL4 antibody; HVR-H1/H2/H3 SEQ ID NO:2, 3, 9; HVR-L1/L2/L3 SEQ ID NO:10, 11, 14 (antibody, V domains shown)
VH: EVQLVESGGGLVQPGGSLRLSCAASGFSFRDNWISWVRQAPGKGLEWVGVINPNSGSTDYADSVKGRFTISADTSKNTAYLQMNSLRAEDTAVYYCARDNFGGYFDYWGQGTLVTVSS
VL: DIQMTQSPSSLSASVGDRVTITCRASQDVSTAVAWYQQKPGKAPKLLIYSASFLYSGVPSRFSGSGSGTDFTLTISSLQPEDFATYYCQQSVNGPATFGQGTKVEIK
B2: YW26.34: affinity matured anti-DLL4 antibody; HVR-H1/H2/H3 SEQ ID NO:1, 6, 9; HVR-L1/L2/L3 SEQ ID NO:10, 11, 16 (antibody, V domains shown)
VH: B1 VH with S28T, R30T, V50L, N54T, D59I
VL: B1 VL with V92Y, N93T, A96S
B3: immobilized DLL4: immobilized C-terminal His-tagged human DLL4 (amino acids 1-404) used to activate Notch in HUVECs (protein)
chain: GSGVFQLQLQEFINERGVLASGRPCEPGCRTFFRVCLKHFQAVVSPGPCTFGTVSTPVLGTNSFAVRDDSSGGGRNPLQLPFNFTWPGTFSLIIEAWHAPGDDLRPEALPPDALISKIAIQGSLAVGQNWLLDEQTSTLTRLRYSYRVICSDNYYGDNCSRLCKKRNDHFGHYVCQPDGNLSCLPGWTGEYCQQPICLSGCHEQNGYCSKPAECLCRPGWQGRLCNECIPHNGCRHGTCSTPWQCTCDEGWGGLFCDQDLNYCTHHSPCKNGATCSNSGQRSYTCTCRPGYTGVDCELELSECDSNPCRNGGSCKDQEDGYHCLCPPGYYGLHCEHSTLSCADSPCFNGGSCRERNQGANYACECPPNFTGSNCEKKVD
modifications: left off: small tags and cut ends

Columns and labels:
human Delta4 (ECD5.5) = biological target: T1, human Delta4 (ECD5.5) (Homo sapiens, UniProt Q9NR61); assay: Surface plasmon resonance (BIAcore-3000) binding affinity and kinetics; details: human DLL4-His injected over coupled antibody, 25° C.
T1 construct: DLL4-His (C-terminal His-tagged human DLL4, amino acid 1-404); His (C)
Description: (§1) To determine the binding affinity of the anti-DLL4 Mabs, surface plasmon resonance (SRP) measurement with a BIAcore™-3000 was used (BIAcore, Inc., Piscataway, N.J.). Briefly, carboxymethylated dextran biosensor chips (CM5, BIAcore Inc.) were activated with N-ethyl-N′-(3-dimethylaminopropyl)-carbodiimide hydrochloride (EDC) and N-hydroxysuccinimide (NHS) according to the supplier's instructions. Anti-DLL4 antibody was diluted with 10 mM sodium acetate, pH 4.8, into 5 μg/ml before injection at a flow rate of 5 μl/minute to achieve approximately 500 response units (RU) of coupled antibody. Next, IM ethanolamine was injected to block unreacted groups. For kinetics measurements, two-fold serial dilutions of either human or murine DLL4-His molecules (0.7 nM to 500 nM) were injected in PBS with 0.05% Tween™ 20 at 25° C. at a flow rate of 25 μl/min. Association rates (kon) and dissociation rates (koff) were calculated using a simple one-to-one Langmuir binding model (BIAcore Evaluation Software version 3.2). The equilibrium dissociation constant (Kd) was calculated as the ratio koff/kon.

murine Delta4 (ECD5.5) = biological target: T2, murine Delta4 (ECD5.5) (Mus musculus, UniProt Q9JI71); assay: as above; details: murine DLL4-His injected over coupled antibody, 25° C.
T2 construct: murine Delta4 (ECD5.5); His
Description: as §1

HUVEC = HUVEC proliferation on Notch activation by immobilized DLL4; format: cell-based, human; details: Notch activation by immobilized DLL4 protein
VEGFR2 = assay: Real-time quantitative RT-PCR of VEGFR2 expression in HUVECs; format: cell-based, human; details: 2-D culture of HUVECs (36 hr)
Description: RNA extraction and Real-time quantitative RT-PCR. Extraction of total RNA from HUVECs in 2-D culture was done using RNeasy® Mini Kit (Qiagen) as per instructions of the manufacturer. To extract total RNA from HUVECs growing in fibrin gels, fibrin gels were treated with 10× trypsin-EDTA (Gibco) for 5 min to remove the top layer fibroblasts, followed by neutralization with 10% FBS in PBS. The gel clots were then removed from tissue culture wells and subjected to centrifugation (10K for 5 min) in microtubes to remove excessive fluid. The resulting gel “pellets” were lysed with lysis buffer (RNeasy® Mini Kit), and further processed as with HUVECs in 2-D culture. The quality of RNA was assessed using RNA 6000 Nano Chips and the Agilent 2100 Bioanalyzer (Agilent Technologies). Real-time quantitative RT-PCR reactions were done in triplicate using 7500 Real Time PCR System (Applied Biosystems). Human GAPDH was used as reference gene for normalization. The expression levels are expressed as the mean (±SEM) fold mRNA changes relative to control from 3 separate determinations. The forward and reverse primer and probe sequences for VEGFR2, TGFβ2 and GAPDH were as follows.
Therefore, while VEGF can act upstream of DLL4/Notch pathway, DLL4/Notch is capable of fine-tuning the response through negatively regulating VEGFR2 expression.

T2 sequence (Q9JI71 27-405 limits assumed): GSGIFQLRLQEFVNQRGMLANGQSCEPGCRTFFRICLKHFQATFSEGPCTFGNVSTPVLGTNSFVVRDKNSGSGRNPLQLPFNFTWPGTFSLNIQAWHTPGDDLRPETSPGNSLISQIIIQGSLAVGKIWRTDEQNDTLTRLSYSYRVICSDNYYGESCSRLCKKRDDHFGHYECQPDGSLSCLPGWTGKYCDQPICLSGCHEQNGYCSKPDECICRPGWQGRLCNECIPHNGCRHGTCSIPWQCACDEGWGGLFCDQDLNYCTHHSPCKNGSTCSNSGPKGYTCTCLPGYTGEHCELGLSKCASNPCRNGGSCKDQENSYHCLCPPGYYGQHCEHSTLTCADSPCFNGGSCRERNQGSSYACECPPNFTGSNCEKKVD

Molecule	koff/10^−4 (human Delta4 (ECD5.5))	kon/10^5 (human Delta4 (ECD5.5))	koff10^−4 (murine Delta4 (ECD5.5))	kon/10^5 (murine Delta4 (ECD5.5))	HUVEC proliferation / growth (HUVEC)	VEGFR2 expression on Notch activation (VEGFR2)
B1	0.66 10^−4	1.8 10^5	0.73 10^−4	3.3 10^5		
B2	0.67 10^−4	1.9 10^5	0.65 10^−4	3.6 10^5		
B3					significant growth inhibition	suppressed the expression of VEGFR2
